Measured values published in patent US20070077212A1, “Protein with activity of hydrolyzing amylopectin, starch, glycogen and amylose, gene encoding the same, cell expressing the same, and production method thereof” (LIFENZA CO., LTD., priority 2004, published 2007).
Entries after “also recorded” stand apart in the source; their conditions may differ.

What was measured:
Assay type in all cases: biochemical
[1] = Relative substrate specificity of LSA enzyme: dextran
Description: (§1) The reducing value of the carbohydrolase was determined by a DNS (3,5-dinitrosalicylic acid) method in combination with a copper-bicinchoninate method. That is, 100 μl of copper-bicinchoninate was added to 100 μl of an enzyme solution, and allowed to react at 80C. for 35 min, followed by being cooled for about 15 min. Absorbance was measured at 560 nm.

[2] = Relative substrate specificity of LSA enzyme: amylopectin
Description: as §1

[3] = Effect of metal ions, chelating agents and denaturants on LSA enzyme activity
Description: as §1
Effects of EDTA, EGTA and metal ions on enzyme activity were measured. EDTA and EGTA were each used at a final concentration of 1 mM. As for metal ions, they included ZnCl2, CuS04, CaCl2 and MgCl2 and were used at a final concentration of 5 mM. The enzyme activity was also measured in the presence of dodesyl sulfate (SDS, 0.1%, 0.5%, 1%, 2%), urea (2M), acetone (0-80%) and ethanol (0-70%). For the measurement, the enzyme was allowed to react at 37° C. for 30 min with 2% starch as a substrate.

[4] = Relative substrate specificity of LSA enzyme: amylose
Description: as §1

[5] = TLC analysis of starch hydrolysis products; settings: 2% starch
Description: (§2) Subsequently, the malto oligosaccharides were degraded into maltopentaose and lower oligosaccharides.

[6] = Assay for optimal pH and temperature and stability of enzyme
Description: as §1
The enzyme LSA was assayed for optimal pH by measuring reaction rates in the range of pH 3-9 at intervals of pH 1.0. For this purpose, 2OmM citrate phosphate buffer (pH 4.0), citrate/phosphate buffer (pH 5-6) and sodium phosphate buffer (pH 7-9) were used. After reaction at 37° C. for […], the carbohydrolase activity of the enzyme was determined by a DNS method. Also, the pH stability of the enzyme was measured after the enzyme was added to each buffer and allowed to stand for 3 hours at 22° C.
The optimal temperature of the enzyme was determined by measuring the reaction rates of the enzyme which had been allowed to stand for 30 min at various temperatures (20-80° C., 10C. interval). […] 1% (w/v) starch was used as a substrate in determining the activity and stability of the enzyme.

[7] = Activity staining on starch-containing PAGE gel; settings: 30 min at 37° C.
Description: For sodium dodecyl sulfate-polyacrylamide gel electrophoresis (SDS-PAGE), protein samples were loaded onto 10% polyacrylamide gel in Tris-glycine buffer (pH 8.8). The polyacrylamide gel contained 1% starch in order to detect whether the protein samples could degrade starch polysaccharide. After completion of the electrophoresis, SDS was removed by washing the gel with 50 mM Tris-HCl buffer (pH 8.0) and a 20% 2-propanol solution for 1 hour. The gel was immersed in a reaction buffer (50 mM sodium acetate, 5 mM CaCl2, pH 5) at 37° C. for […] and then in an iodide solution (0.3% iodide, 3% potassium iodide) for 10 min, and washed with distilled water. The starch hydrolyzing activity was identified by the appearance of a clear zone against a brown background.
Following IPTG induction in E. coli, the cells were harvested, and disrupted by sonication. Proteins were purified using His-tagged affinity column and analyzed by SDS-PAGE (10%) (FIG. 3, lane 1). The band for the mainly expressed protein corresponded to 73 kDa (LSA+His-tag). To examine the ability of the purified protein to degrade polysaccharides such as starch, electrophoresis was carried out using a PAGE gel containing starch. After completion of the electrophoresis, the gel was allowed to stand for 30 min at 37° C. and stained with an iodine solution. […]

[8] = Relative substrate specificity of LSA enzyme: pullulan
Description: as §1

[9] = Relative substrate specificity of LSA enzyme: starch
Description: as §1

[10] = TLC analysis of reaction with maltooligosaccharide series; settings: mixture of maltooligosaccharide series
Description: FIG. 8 is a photograph of a TLC result showing the enzymatic activity of the LSA of the present invention in which starch samples (1% w/v) are analyzed, along with maltodextrin (Mn), before and after being hydrolyzed by the enzyme (lanes 1 and 2 in panel A, respectively) and maltooligosaccharide samples (1% w/v) are analyzed after purified LSA is allowed to react with a series of maltooligosaccharides including G1 (glucose) to G7 (maltoheptaose) (lanes 1 to 7 in panel B, respectively).
as §2

[11] = Relative substrate specificity of LSA enzyme: alpha-cyclodextrin
Description: as §1

[12] = Relative substrate specificity of LSA enzyme: glycogen
Description: as §1

[13] = Relative substrate specificity of LSA enzyme: amylodextrin
Description: as §1

B1: LSA: carbohydrolase derived from Lipomyces starkeyi, amino acid sequence SEQ. ID. No. 1, expressed in E. coli; hydrolyzes amylopectin, starch, glycogen and amylose (protein)
chain: MLLINFFIAVLGVISLSPIVVARYILRRDCTTVTVLSSPESVTSSNHVELASHEMCDSTLSASLYIYNDDYDKIVTLYYLTSSGTTGSVTASYSSSLSNNWELWSLSAPAADAVEITGASYVDSDASATYATSFDIPLTTTTTSSSSASATSTSSLTTTSSVSISVSVPTGTAANWRGRAIYEIVTDRFARTDGSTTYLCDVTDRVYCGGSYEGIINMLDYIEGMGFTAIWISPIVENIPDDTGYGYAYHGYWMKDIFALNTNFGTADDLIALATELHNRGMYLMVDIVVNHFAFSGSHADVDYSEYFPYSSEDYFHSFCWITDYSNETNVEQCWLGDDTVPLVDVNTELDTVKSEYQSWVEELIANYSIDGLRIDTVKHVEMDFWAPFEEAAGIYAVGEVFDGDPSYTCPYEENLDGVLNYPVYYPVVSAFESVSGSVSSLVDMIDTLKSECTDTTLLGSFLENEDNPRFPSYTSDESLIKNAIAFTMLSDGIPIIYYGEEQGLNGGNDPYNREALWLTGYSTTSTFYKYIASLNEIRNEAIYKDDTYLTYENWVIYSDSTTIAMRKGFTGNEIITVLSNLGTSGSSYTLTLSNTGYTASSVVYEILTCTAVTVDSSGNLAVPMSSGLPKVFYEESQLVGSGICSM
modifications: E. coli BL21(DE3)pLysS
notes: ID; No. 1, expressed in E. coli; hydrolyzes amylopectin, starch, glycogen and amylose
For B1, the “degradation of dextran (in words)” value [1] was “degrade; also recorded: weakly”, the “Relative Activity (%)” value ([1]; substrate Dextran, relative to starch) was 4% and the “degradation of amylopectin (in words)” value [2] was “strongly”. The “Relative Activity (%)” value ([2]; substrate Amylopectin, relative to starch) was 141%, the “effect on enzyme activity” value ([3]; 1 mM EDTA) was “inhibited” and the “increase of starch degradation activity” value ([3]; 5 mM Ca+) was “about 315%”. For the same molecule, the “effect on starch degradation activity” value ([3]; 5 mM Cu^2+) was “inhibited”, the “increase of starch degradation activity” value ([3]; 5 mM Mg^2+) was ~220% and the increase in activity ([3]; 10-20% ethanol solution) was 1.25-1.33 fold. For the same molecule, the increase in activity ([3]; 10-40% acetone) was 1.03-1.22 fold, the “activity relative to optimal activity” value ([3]; 60% acetone) was “lower than 50%” and the “activity relative to optimal activity” value ([3]; 60% ethanol) was “lower than 50%”. The “Relative Activity (%)” value ([3]; Acetone 20%) was 122%, the “Relative Activity (%)” value ([3]; Acetone 30%) was 115% and the “Relative Activity (%)” value ([3]; CaCl2 5 mM) was 315%. The “Relative Activity (%)” value ([3]; CaCl2 + EDTA 5 mM/1 mM) was 185%, the “Relative Activity (%)” value ([3]; CuSO4 5 mM) was 20% and the “Relative Activity (%)” value ([3]; CuSO4 + EDTA 5 mM/1 mM) was 12%. For the same molecule, the “Relative Activity (%)” value ([3]; EDTA 1 mM) was 46%, the “Relative Activity (%)” value ([3]; EGTA 1 mM) was 105% and the “effect on enzyme activity” value ([3]; EGTA (1 mM; EGTA-containing solution)) was “not inhibited; also recorded: not influenced”. The “Relative Activity (%)” value ([3]; MgCl2 5 mM) was 220%, the “Relative Activity (%)” value ([3]; MgCl2 + EDTA 5 mM/1 mM) was 129% and the “effect on starch degradation activity” value ([3]; SDS) was “completely inhibited”. The “Relative Activity (%)” value ([3]; SDS 0.1%) was 66%, the “Relative Activity (%)” value ([3]; SDS 0.5%) was 49% and the “Relative Activity (%)” value ([3]; SDS 1%) was 24%. For the same molecule, the “Relative Activity (%)” value ([3]; SDS 2%) was 12%, the “Relative Activity (%)” value ([3]; Urea 2M) was 115% and the “effect on starch degradation activity” value ([3]; acetone) was “increased”. For the same molecule, the “Relative Activity (%)” value ([3]; additive: None, 2% starch, 37° C., 30 min) was 100%, the “effect on starch degradation activity” value ([3]; urea) was “increased” and the “degradation of amylose (in words)” value [4] was “weakly”. The “Relative Activity (%)” value ([4]; substrate Amylose, relative to starch) was 41%, the “hydrolysis products, early stage of reaction” value [5] was “oligosaccharides larger than maltopentaose were produced” and the “hydrolysis products, final” value [5] was “maltotriose and maltotetraose were predominant”. For the same molecule, the “optimum pH” value [6] was 6 pH, the “pH range in which activity is 90% of its maximum” value [6] was 5-8 pH and the “pH range in which amylase activity is kept stably” value [6] was 5-8 pH. For the same molecule, the “temperature of optimal activity” value ([6]; 1% (w/v) starch) was 40 °C, the “temperature range of stability” value ([6]; 1% (w/v) starch) was 20-50 °C and the “activity after incubation, relative to stable temperatures” value ([6]; incubation at 60° C. for 3 hours) was 70%. The “starch degradation on gel, iodine staining” value [7] was “clear zone”, the “degradation of pullulan (in words)” value [8] was “degrade; also recorded: weakly” and the “Relative Activity (%)” value ([8]; substrate Pullulan, relative to starch) was 3%. For the same molecule, the “degradation of starch (soluble) (in words)” value [9] was “strongly”, the “Relative Activity (%)” value ([9]; substrate Starch) was 100% and the “degradation products of G6” value [10] was “G2+G4 or into G3+G3”. For the same molecule, the “hydrolysis of G2” value [10] was “did not hydrolyze”, the “hydrolysis of G3” value [10] was “did not hydrolyze” and the “degradation of a-cyclodextrin (in words)” value [11] was “degrade; also recorded: weakly”. For the same molecule, the “Relative Activity (%)” value ([11]; substrate alpha-CD, relative to starch) was 4%, the “degradation of glycogen (in words)” value [12] was “strongly” and the “Relative Activity (%)” value ([12]; substrate Glycogen, relative to starch) was 80%. For the same molecule, the “degradation of amylodextrin (in words)” value [13] was “weakly” and the “Relative Activity (%)” value ([13]; substrate Amylodextrin, relative to starch) was 17%.
